Consider one substance from patent US20250320297A1.

This experiment concerns the target human PDL1 stably expressed on CHO cells (human) (UniProt Q9NZQ7).

human PDL1 stably expressed on CHO cells (human), sequence (Q9NZQ7 19-290 limits assumed): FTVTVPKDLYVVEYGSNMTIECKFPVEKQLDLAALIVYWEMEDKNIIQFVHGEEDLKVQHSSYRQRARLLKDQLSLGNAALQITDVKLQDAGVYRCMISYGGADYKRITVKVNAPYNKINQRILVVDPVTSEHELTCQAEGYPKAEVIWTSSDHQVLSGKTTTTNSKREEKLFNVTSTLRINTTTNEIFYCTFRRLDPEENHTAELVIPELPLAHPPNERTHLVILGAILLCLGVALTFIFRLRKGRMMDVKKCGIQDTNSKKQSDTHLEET

Consider “Reference Ab 1 (analog of MPDL3280A) (antibody)”, for which the EC50; NFAT luciferase reporter (RLU), CHO cells with human PDL1 co-incubated with Jurkat cells with human PD1 and NFAT reporter, blocking of PDL1/PD1 stood at 0.0532 nM.
